Results reported in patent publication US20230357367A1 (GENERATE BIOMEDICINES, published 2023).
Changes are numbered by the printed parent chain. Like-named read-outs stand apart in the source and are kept apart here.

Experiments:
[1] = target: T1, SARS-CoV-1 Spike on pseudovirus (SARS-CoV-1, UniProt P59594 14-1255); assay: cell-based or functional assay
[2] = target: T2, WIV1 Spike on pseudovirus (WIV1 (bat SARS-like coronavirus)); assay: cell-based or functional assay
[3] = target: T1, SARS-CoV-1 Spike on pseudovirus; assay: cell-based or functional assay; remark: listed apart in the source
[4] = target: T2, WIV1 Spike on pseudovirus; assay: cell-based or functional assay; remark: listed apart in the source
[5] = target: T1, SARS-CoV-1 Spike on pseudovirus; assay: cell-based or functional assay; remark: listed apart in the source
[6] = target: T2, WIV1 Spike on pseudovirus; assay: cell-based or functional assay; remark: listed apart in the source
[7] = target: T3, MERS spike trimer (recombinant, negative control) (MERS, UniProt K9N5Q8 18-1296); assay: SPR, Fab over anti-His-captured trimer, 25 C
T3 sequence: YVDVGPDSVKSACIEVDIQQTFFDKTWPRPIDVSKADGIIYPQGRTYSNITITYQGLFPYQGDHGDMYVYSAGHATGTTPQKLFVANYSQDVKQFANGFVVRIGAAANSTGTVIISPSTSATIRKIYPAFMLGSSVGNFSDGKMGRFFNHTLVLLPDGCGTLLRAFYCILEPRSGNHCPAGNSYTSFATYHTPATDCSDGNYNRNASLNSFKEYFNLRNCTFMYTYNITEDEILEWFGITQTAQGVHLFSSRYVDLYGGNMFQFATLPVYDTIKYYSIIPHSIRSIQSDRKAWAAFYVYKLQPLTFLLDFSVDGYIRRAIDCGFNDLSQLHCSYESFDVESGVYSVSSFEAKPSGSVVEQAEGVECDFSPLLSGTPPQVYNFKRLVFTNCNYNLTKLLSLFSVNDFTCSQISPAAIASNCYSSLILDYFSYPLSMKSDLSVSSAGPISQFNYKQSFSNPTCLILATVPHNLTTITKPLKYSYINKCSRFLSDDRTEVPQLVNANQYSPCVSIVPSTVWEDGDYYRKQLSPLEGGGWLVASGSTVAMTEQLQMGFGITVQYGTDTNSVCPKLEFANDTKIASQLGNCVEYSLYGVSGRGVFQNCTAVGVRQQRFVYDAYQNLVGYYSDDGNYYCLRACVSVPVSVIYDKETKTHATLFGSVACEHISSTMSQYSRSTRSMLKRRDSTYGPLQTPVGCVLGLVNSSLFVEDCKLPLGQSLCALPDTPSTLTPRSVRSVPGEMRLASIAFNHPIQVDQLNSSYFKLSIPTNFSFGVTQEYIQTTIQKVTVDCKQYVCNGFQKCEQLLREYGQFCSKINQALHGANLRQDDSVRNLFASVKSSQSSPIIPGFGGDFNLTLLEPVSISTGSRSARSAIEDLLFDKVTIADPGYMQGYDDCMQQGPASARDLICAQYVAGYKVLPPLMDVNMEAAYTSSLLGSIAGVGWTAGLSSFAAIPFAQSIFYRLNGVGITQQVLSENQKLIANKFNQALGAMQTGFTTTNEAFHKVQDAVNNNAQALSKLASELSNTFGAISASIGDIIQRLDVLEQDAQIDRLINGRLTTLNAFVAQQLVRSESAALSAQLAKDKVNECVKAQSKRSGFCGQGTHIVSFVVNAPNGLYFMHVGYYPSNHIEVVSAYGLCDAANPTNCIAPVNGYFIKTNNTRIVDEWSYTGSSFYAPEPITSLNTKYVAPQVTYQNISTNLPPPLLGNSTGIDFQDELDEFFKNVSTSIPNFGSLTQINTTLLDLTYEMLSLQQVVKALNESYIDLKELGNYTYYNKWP

[8] = target: spike of SARS-CoV-2 Eng20 (WT) (SARS-CoV-2, UniProt P0DTC2 14-1273); assay: cell-based or functional assay

B1: Reference Antibody (antibody, V domains shown)
VH: EVQLVESGAEVKKPGESLKISCKGSGYTFTRYWIGWVRQMPGKGLEWMGIIYPGDSDTRYSPSFQGHVTISADKSISTAYLQWNSLKASDTAMYYCARLPQYCSNGVCQRWFDPWGQGTLVTVSS
VL: EIVLTQSPSSVSASVGDRVTITCRASQGISSWLAWYQQKPGKAPKLLIYAASSLQSGVPSRFSGSGSGTDFTLTISSLQPEDFATYYCQQGNSFPYTFGQGTNLEIK
How did the “IC50, pseudovirus neutralization” value [1] turn out when B1 was run?
The value was 0.244 µg/mL.

What about the “IC50, pseudovirus neutralization” value [2] of the same binder?
Its value is 0.473 µg/mL.

And the “IC50, pseudovirus neutralization” value [3]?
Its value is 0.0352 µg/mL.

And the “IC50, pseudovirus neutralization” value [4]?
Its value is 0.0196 µg/mL.

What about the “% neutralization at 4.5 µg/ml, pseudovirus” value [5] of the same binder?
Its value is 94.3%.

And the “% neutralization at 4.5 µg/ml, pseudovirus” value [6]?
Its value is 97.6%.

B2: AB-1 Fab (Fab, V domains shown)
VH: B1 VH with T58V, N105K, Q109Y
VL: B1 VL with N92H
Does B2 bind [7]?
Result: no binding (tested: 600 nM highest Fab concentration)

B3: Reference Antibody Fab (Fab, V domains shown)
VH: B1 VH
VL: B1 VL
Does B3 bind [7]?
Result: no binding (tested: 600 nM highest Fab concentration)

B4: bebtelovimab (antibody, V domains shown)
VH: QITLKESGPTLVKPTQTLTLTCTFSGFSLSISGVGVGWLRQPPGKALEWLALIYWDDDKRYSPSLKSRLTISKDTSKNQVVLKMTNIDPVDTATYYCAHHSISTIFDHWGQGTLVTVSS
VL: QSALTQPASVSGSPGQSITISCTATSSDVGDYNYVSWYQQHPGKAPKLMIFEVSDRPSGISNRFSGSKSGNTASLTISGLQAEDEADYYCSSYTTSSAVFGGGTKLTVLG
How did the “EC50, live virus neutralization” value [8] turn out when B4 was run?
The value was 0.0016 µg/mL.
